B1: A1613 mutant NRE probe (dsDNA)
DNA 1: GCACGTCGCATGGAAACCACCGTGAACGCC
DNA 2: GGCGTTCACGGTGGTTTCCATGCGACGTGC
B2: NS non-specific oligo (dsDNA)
DNA 1: GGAATTACGTGGCCACTCGAGGGAATTACG
DNA 2: CGTAATTCCCTCGAGTGGCCACGTAATTCC

What was measured:
RFX1 [1] = target: T1, RFX1 (Homo sapiens, UniProt P22670 1-979); test: EMSA; shifted to C2 position; favored over wild-type; EMSA: 1x binding buffer from 10x (50 mM NaCl, 10 mM Tris-HCl pH 7.5, 2.5 mM MgCl2, 4% glycerol, 0.5 mM DTT), 0.05% NP40, poly(dI-dC), 20 ul, room temperature 1; settings: protein: ivt; tags: C-terminal myc in the source clone pCMV-RFX1; chain copies: 2; label: 32P end label (T4 kinase); blunt
T1 sequence: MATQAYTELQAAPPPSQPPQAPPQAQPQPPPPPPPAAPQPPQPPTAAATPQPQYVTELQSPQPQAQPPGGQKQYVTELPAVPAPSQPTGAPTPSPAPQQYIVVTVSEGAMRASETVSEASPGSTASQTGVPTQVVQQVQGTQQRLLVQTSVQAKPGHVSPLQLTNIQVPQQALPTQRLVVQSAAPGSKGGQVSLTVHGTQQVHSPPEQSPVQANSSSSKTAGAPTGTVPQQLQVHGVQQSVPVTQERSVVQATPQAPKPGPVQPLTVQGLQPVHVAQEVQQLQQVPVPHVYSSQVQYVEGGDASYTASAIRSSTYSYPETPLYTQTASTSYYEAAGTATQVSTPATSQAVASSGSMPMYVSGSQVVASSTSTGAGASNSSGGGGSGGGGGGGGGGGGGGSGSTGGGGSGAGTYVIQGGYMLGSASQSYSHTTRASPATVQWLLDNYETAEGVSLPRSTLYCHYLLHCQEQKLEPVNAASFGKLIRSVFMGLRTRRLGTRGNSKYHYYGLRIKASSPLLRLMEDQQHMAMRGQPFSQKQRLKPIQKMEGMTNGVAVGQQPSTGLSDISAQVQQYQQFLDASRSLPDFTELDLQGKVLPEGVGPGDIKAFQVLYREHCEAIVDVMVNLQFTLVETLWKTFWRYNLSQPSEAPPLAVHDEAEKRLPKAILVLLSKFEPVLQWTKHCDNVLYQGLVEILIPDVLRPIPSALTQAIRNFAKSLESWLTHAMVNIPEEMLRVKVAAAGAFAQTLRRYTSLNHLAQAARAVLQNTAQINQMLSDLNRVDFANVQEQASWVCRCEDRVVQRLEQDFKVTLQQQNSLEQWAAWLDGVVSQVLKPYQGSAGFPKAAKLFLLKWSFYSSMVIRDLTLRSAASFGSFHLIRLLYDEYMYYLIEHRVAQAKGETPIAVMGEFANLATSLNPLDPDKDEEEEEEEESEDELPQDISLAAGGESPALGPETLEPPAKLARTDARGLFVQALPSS

RFX1 [2] = target: T1, RFX1; test: EMSA; EMSA: 1x binding buffer from 10x (50 mM NaCl, 10 mM Tris-HCl pH 7.5, 2.5 mM MgCl2, 4% glycerol, 0.5 mM DTT), 0.05% NP40, poly(dI-dC), 20 ul, room temperature 1; settings: protein: ivt; tags: C-terminal myc in the source clone pCMV-RFX1; chain copies: 2; label: 32P end label (T4 kinase); blunt

Binder | binding result (RFX1 [1]) | binding result (RFX1 [2])
B1 | binds | 
B2 |  | no binding

From PMC3140978, “The G1613A Mutation in the HBV Genome Affects HBeAg Expression and Viral Replication through Altered Core Promoter Activity”
